Molecular target: IL-1 receptors on the surface of HIG-82 synoviocytes (rabbit (endogenous in HIG-82))
Experiment: flow cytometry on cells

Chain of IL-1β (P01584 117-269): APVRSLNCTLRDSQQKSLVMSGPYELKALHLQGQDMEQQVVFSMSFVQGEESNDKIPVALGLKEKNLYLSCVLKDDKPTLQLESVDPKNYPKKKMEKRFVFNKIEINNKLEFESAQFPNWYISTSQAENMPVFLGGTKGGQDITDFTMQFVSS

% cells with bound IL-1Ra-particles after pre-block with IL-1β: 2.8%
Substance: IL-1β (from UniProt P01584 117-269) (ligand)
